Where a chain is given by its changes, count along the chain named. Values belong to the binder of their own block, whether it stands above or below them.
Tests used:
[1] = target: FcRn-GFP; assay: cell-based or functional assay
[2] = target: T1, Recombinant in-house Human FcRn protein (human, UniProt P55899 24-297; P61769 21-119, limits assumed); assay: competitive binding ELISA, pH 6.0, in triplicate; competitor IgG
T1 construct: also called huFCRN; HuFcRn

[3] = target: T1, Recombinant in-house Human FcRn protein; assay: competitive binding ELISA, pH 6.0; competitor Efgartigimod (Fc Fragment 1)
[4] = target: T2, mouse FcRn (mouse, UniProt Q61559 22-297; P01887 21-119, limits assumed); assay: SPR, pH 7.4
T2 sequence (looked up) 1: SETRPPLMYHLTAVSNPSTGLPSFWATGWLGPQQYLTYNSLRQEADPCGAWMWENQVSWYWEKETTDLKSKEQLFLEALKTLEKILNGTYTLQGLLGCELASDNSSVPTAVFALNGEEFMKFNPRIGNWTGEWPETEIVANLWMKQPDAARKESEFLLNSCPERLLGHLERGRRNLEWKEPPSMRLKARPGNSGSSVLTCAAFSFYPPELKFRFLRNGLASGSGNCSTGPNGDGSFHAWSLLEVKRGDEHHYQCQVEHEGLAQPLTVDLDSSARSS
T2 sequence (looked up) 2: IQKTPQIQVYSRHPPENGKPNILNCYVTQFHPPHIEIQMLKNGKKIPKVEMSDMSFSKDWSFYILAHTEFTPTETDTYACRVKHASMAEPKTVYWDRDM

[5] = target: T3, cynomolgus monkey FcRn (cynomolgus monkey, UniProt Q8SPV9 24-297; Q8SPW0 21-119, limits assumed); assay: SPR, pH 7.4
T3 construct: also called cynoFcRn

[6] = target: T1, Recombinant in-house Human FcRn protein; assay: SPR, pH 7.4
[7] = target: T4, rat FcRn (rat, UniProt P13599 23-298; P07151 21-119, limits assumed); assay: SPR, pH 7.4
T4 sequence (looked up) 1: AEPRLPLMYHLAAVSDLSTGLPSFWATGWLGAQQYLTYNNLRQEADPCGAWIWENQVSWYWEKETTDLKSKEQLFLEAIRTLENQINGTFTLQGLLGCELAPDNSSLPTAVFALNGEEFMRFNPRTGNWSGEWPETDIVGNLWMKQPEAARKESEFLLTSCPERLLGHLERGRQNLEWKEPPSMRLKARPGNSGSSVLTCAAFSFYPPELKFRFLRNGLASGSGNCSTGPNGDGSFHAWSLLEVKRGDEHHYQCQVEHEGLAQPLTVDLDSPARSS
T4 sequence (looked up) 2: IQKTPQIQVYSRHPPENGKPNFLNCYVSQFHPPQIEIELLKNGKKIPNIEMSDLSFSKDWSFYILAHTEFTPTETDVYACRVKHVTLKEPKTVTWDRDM

[8] = target: T2, mouse FcRn; assay: SPR, pH 6
[9] = target: T3, cynomolgus monkey FcRn; assay: SPR, pH 6
[10] = target: T1, Recombinant in-house Human FcRn protein; assay: SPR, pH 6
[11] = target: T4, rat FcRn; assay: SPR, pH 6

Average (n = 3) Residual FcRn [1]: 20
B1: Fc Fusion Molecule 22 (Fc fusion)
chain 1: DKTHTCPPCPAPELLGGPSVFLFPPKPKDTLYITREPEVTCVVVDVSHEDPEVKFNWYVDGVEVHNAKTKPREEQYNSTYRVVSVLTVLHQDWLNGKEYKCKVSNKALPAPIEKTISKAKGQPREPQVCTLPPSRDELTKNQVSLSCAVKGFYPSDIAVEWESNGQPENNYKTTPPVLDSDGSFFLVSKLTVDKSRWQQGNVFSCSVMHEALKYHYTQKSLSLSPGGGGGSGGGGSGGGGSEVQLLESGGGLVQPGGSLRLSCAASGFTFRSFGMSWVRQAPGKGPEWVSSISGSGSDTLYADSVKGRFTISRDNSKNTLYLQMNSLRPEDTAVYYCTIGGSLSRSSQGTLVTVSS
chain 2: DKTHTCPPCPAPELLGGPSVFLFPPKPKDTLYITREPEVTCVVVDVSHEDPEVKFNWYVDGVEVHNAKTKPREEQYNSTYRVVSVLTVLHQDWLNGKEYKCKVSNKALPAPIEKTISKAKGQPREPQVYTLPPCRDELTKNQVSLWCLVKGFYPSDIAVEWESNGQPENNYKTTPPVLDSDGSFFLYSKLTVDKSRWQQGNVFSCSVMHEALKYHYTQKSLSLSPG

Average (n = 3) Residual FcRn [1]: 31
B2: Fc Fusion Molecule 41 (Fc fusion)
chain 1: DKTHTCPPCPAPELLGGPSVFLFPPKPKDTLYITREPEVTCVVVDVSHEDPEVKFNWYVDGVEVHNAKTKPREEQYNSTYRVVSVLTVLHQDWLNGKEYKCKVSNKALPAPIEKTISKAKGQPREPQVCTLPPSRDELTKNQVSLSCAVKGFYPSDIAVEWESNGQPENNYKTTPPVLDSDGSFFLVSKLTVDKSRWQQGNVFSCSVMHEALKYHYTQKSLSLSPGGGGGSGGGGSGGGGSGGGGSGGGGSGGGGSEVQLLESGGGLVQPGGSLRLSCAASGFTFRSFGMSWVRQAPGKGPEWVSSISGSGSDTLYADSVKGRFTISRDNSKNTLYLQMNSLRPEDTAVYYCTIGGSLSRSSQGTLVTVSS
chain 2: B1 chain 2

Average (n = 3) Residual FcRn [1]: 21
B4: Fc Fusion Molecule 44 (Fc fusion)
chain 1: B2 chain 1 with F288A
chain 2: B1 chain 2

Average (n = 3) Residual FcRn [1]: 48
B7: Fc Fusion Molecule 42 (Fc fusion)
chain 1: DKTHTCPPCPAPELLGGPSVFLFPPKPKDTLYITREPEVTCVVVDVSHEDPEVKFNWYVDGVEVHNAKTKPREEQYNSTYRVVSVLTVLHQDWLNGKEYKCKVSNKALPAPIEKTISKAKGQPREPQVCTLPPSRDELTKNQVSLSCAVKGFYPSDIAVEWESNGQPENNYKTTPPVLDSDGSFFLVSKLTVDKSRWQQGNVFSCSVMHEALKYHYTQKSLSLSPGGGGGSGGGGSGGGGSGGGGSGGGGSGGGGSGGGGSGGGGSEVQLLESGGGLVQPGGSLRLSCAASGFTFRSFGMSWVRQAPGKGPEWVSSISGSGSDTLYADSVKGRFTISRDNSKNTLYLQMNSLRPEDTAVYYCTIGGSLSRSSQGTLVTVSS
chain 2: B1 chain 2

The next lines start with the binder.

B3: Fc Fusion Molecule 46 (Fc fusion)
chain 1: B7 chain 1 with F298A
chain 2: B1 chain 2
Average (n = 3) Residual FcRn [1]: 44

B5: Fc Fusion Molecule 45 (Fc fusion)
chain 1: DKTHTCPPCPAPELLGGPSVFLFPPKPKDTLYITREPEVTCVVVDVSHEDPEVKFNWYVDGVEVHNAKTKPREEQYNSTYRVVSVLTVLHQDWLNGKEYKCKVSNKALPAPIEKTISKAKGQPREPQVCTLPPSRDELTKNQVSLSCAVKGFYPSDIAVEWESNGQPENNYKTTPPVLDSDGSFFLVSKLTVDKSRWQQGNVFSCSVMHEALKYHYTQKSLSLSPGGGGGSGGGGSGGGGSGGGGSGGGGSGGGGSGGGGSEVQLLESGGGLVQPGGSLRLSCAASGFTFRSAGMSWVRQAPGKGPEWVSSISGSGSDTLYADSVKGRFTISRDNSKNTLYLQMNSLRPEDTAVYYCTIGGSLSRSSQGTLVTVSS
chain 2: B1 chain 2
Average (n = 3) Residual FcRn [1]: 29

B6: Fc Fusion Molecule 43 (Fc fusion)
chain 1: B1 chain 1 with F273A
chain 2: B1 chain 2
Average (n = 3) Residual FcRn [1]: 12

B8: Fc Fragment 13 (other)
chain: B1 chain 2 with C134S, W146T, K213R, Y214F
notes: Human IgG1 Fc fragment; substitutions already in the entry
IC50 [2]: 1.13 nM
IC50 [3]: 4.71 nM
Kd [4]: 2.73 nM
Kd [5]: 1370 nM
Kd [6]: 248 nM
Kd [7]: 16.2 nM
Kd [8]: 0.2 nM
Kd [9]: 41.7 nM
Kd [10]: 9.53 nM
Kd [11]: 4.33 nM

B9: Fc Fragment 14 (other)
chain: B1 chain 2 with C134S, W146T, M208L, K213R, Y214F
notes: as for B8
IC50 [2]: 2.09 nM
IC50 [3]: 3.85 nM
Kd [4]: 2.34 nM
Kd [5]: 1600 nM
Kd [6]: 249 nM
Kd [7]: 12.4 nM
Kd [8]: 0.288 nM
Kd [9]: 36.1 nM
Kd [10]: 8.26 nM
Kd [11]: 3.94 nM

Source: US20250152704A1 (PARAGON THERAPEUTICS, published 2025)
